Laboratory results reported in US20190359693A1.

Key:
[1] = molecular target: recombinant HA of H3N2 A/HK/1/68-MA (influenza A virus); assay: biolayer interferometry (Octet), steady-state fit, geometric mean, pH 7.4
[2] = molecular target: recombinant HA of H3N2 A/Wisconsin/67/05 (influenza A virus); assay: as above
[3] = molecular target: recombinant HA of H1N1 A/Brisbane/59/07 (influenza A virus); assay: as above
[4] = molecular target: recombinant HA of B/Brisbane/60/08 (Victoria) (influenza B virus); assay: as above
[5] = molecular target: recombinant HA of H7N3 A/NIBRG/60 (A/mallard/NL/12/00) (influenza A virus); assay: as above
[6] = molecular target: recombinant HA of H7N9 A/Hangzhou/1/2013 (influenza A virus); assay: as above
[7] = molecular target: hemagglutinin (HA) of influenza virus H1N1 A/Mississippi/03/01 274H (influenza A virus); assay: cell-based or functional assay
[8] = molecular target: hemagglutinin (HA) of influenza virus H7N9 A/Shanghai/2/13 (influenza A virus); assay: cell-based or functional assay
[9] = molecular target: hemagglutinin (HA) of influenza virus H6N8 A/Eurasian Wigeon/MPD411/07 (influenza A virus); assay: cell-based or functional assay
[10] = molecular target: hemagglutinin (HA) of influenza virus H1N1 A/California/07/09 (influenza A virus); assay: cell-based or functional assay
[11] = molecular target: hemagglutinin (HA) of influenza virus H3N2 A/Hiroshima/52/05 (influenza A virus); assay: cell-based or functional assay
[12] = molecular target: hemagglutinin (HA) of influenza virus H3N2 A/Perth/16/09 (influenza A virus); assay: cell-based or functional assay
[13] = molecular target: hemagglutinin (HA) of influenza virus H8N4 A/Eurasian Wigeon/MPH571/08 (influenza A virus); assay: cell-based or functional assay
[14] = molecular target: hemagglutinin (HA) of influenza virus H7N7 A/PR8 H7N7-NY (influenza A virus); assay: cell-based or functional assay
[15] = molecular target: hemagglutinin (HA) of influenza virus H2N2 A/Guiyang/1/57 (influenza A virus); assay: cell-based or functional assay
[16] = molecular target: hemagglutinin (HA) of influenza virus H7N7 A/Netherlands/219/2003 (influenza A virus); assay: cell-based or functional assay
[17] = molecular target: hemagglutinin (HA) of influenza virus H1N1 A/Puerto Rico/8/34-MA (influenza A virus); assay: cell-based or functional assay
[18] = molecular target: hemagglutinin (HA) of influenza virus H3N2 A/HK/1174/99 (influenza A virus); assay: cell-based or functional assay
[19] = molecular target: hemagglutinin (HA) of influenza virus H3N2 A/Brisbane/10/07 (influenza A virus); assay: cell-based or functional assay
[20] = molecular target: hemagglutinin (HA) of influenza virus B/Florida/04/06 (Yamagata) (influenza B virus); assay: cell-based or functional assay
[21] = molecular target: hemagglutinin (HA) of influenza virus H3N2 A/Wisconsin/67/05 (influenza A virus); assay: cell-based or functional assay
[22] = molecular target: hemagglutinin (HA) of influenza virus H3N2 A/Victoria/210/09 (influenza A virus); assay: cell-based or functional assay
[23] = molecular target: hemagglutinin (HA) of influenza virus B/Harbin/7/94 (Yamagata) (influenza B virus); assay: cell-based or functional assay
[24] = molecular target: hemagglutinin (HA) of influenza virus H3N2 A/Johannesburg/33/94 (influenza A virus); assay: cell-based or functional assay
[25] = molecular target: hemagglutinin (HA) of influenza virus H7N9 A/Anhui/1/13 (influenza A virus); assay: cell-based or functional assay
[26] = molecular target: hemagglutinin (HA) of influenza virus H5N1 A/Indonesia/5/05 (influenza A virus); assay: cell-based or functional assay
[27] = molecular target: hemagglutinin (HA) of influenza virus H7N7 A/Northern Shoveler/MPF518/08 (influenza A virus); assay: cell-based or functional assay
[28] = molecular target: hemagglutinin (HA) of influenza virus H12N5 A/Env/MPK659/09 (influenza A virus); assay: cell-based or functional assay
[29] = molecular target: hemagglutinin (HA) of influenza virus H5N1 A/PR8 H5N1 HK97 (influenza A virus); assay: cell-based or functional assay
[30] = molecular target: hemagglutinin (HA) of influenza B/Florida/04/06 (Yamagata) (influenza B virus); assay: cell-based or functional assay
[31] = molecular target: hemagglutinin (HA) of influenza B/Brisbane/60/08 (Victoria) (influenza B virus); assay: cell-based or functional assay
[32] = molecular target: hemagglutinin (HA) of influenza virus H10N8 A/Jiangxi/346/2013 (influenza A virus); assay: cell-based or functional assay
[33] = molecular target: hemagglutinin (HA) of influenza virus H5N2 A/Eurasian Wigeon/MPF461/07 (influenza A virus); assay: cell-based or functional assay
[34] = molecular target: hemagglutinin (HA) of influenza virus H8N2 A/Env/MPJ1258/09 (influenza A virus); assay: cell-based or functional assay
[35] = molecular target: hemagglutinin (HA) of influenza virus B/Massachusetts/02/12 (Yamagata) (influenza B virus); assay: cell-based or functional assay
[36] = molecular target: hemagglutinin (HA) of influenza virus B/Brisbane/60/08 (Victoria) (influenza B virus); assay: cell-based or functional assay
[37] = molecular target: hemagglutinin (HA) of influenza virus H5N2 A/Eurasian Wigeon/HK/MPF333/07 (influenza A virus); assay: cell-based or functional assay
[38] = molecular target: hemagglutinin (HA) of influenza virus H11N9 A/Northern Pintail/MPC2085/07 (influenza A virus); assay: cell-based or functional assay
[39] = molecular target: hemagglutinin (HA) of influenza virus H10N3 A/Common Teal/MPH11/08 (influenza A virus); assay: cell-based or functional assay
[40] = molecular target: hemagglutinin (HA) of influenza virus H7N7 A/Common Teal/MPF139/07 (influenza A virus); assay: cell-based or functional assay
[41] = molecular target: hemagglutinin (HA) of influenza virus H3N2 A/Aichi/2/68 (influenza A virus) (UniProt P03437); assay: cell-based or functional assay
[42] = molecular target: hemagglutinin (HA) of influenza virus H10N9 A/Northern Shoveler/MPE2531/08 (influenza A virus); assay: cell-based or functional assay
[43] = molecular target: hemagglutinin (HA) of influenza virus H2N2 A/Env/HK/MPU3156/05 (influenza A virus); assay: cell-based or functional assay

B1: MD2407 (bispecific antibody)
chain: EVQLVESGGGLVQPGGSLRLSCAVSISIFDIYAMDWYRQAPGKQRDLVATSFRDGSTNYADSVKGRFTISRDNAKNTLYLQMNSLKPEDTAVYLCHVSLYRDPLGVAGGMGVYWGKGALVTVSSGGGGSGGGGSEVQLVESGGGLVQAGGSLKLSCAASGRTYAMGWFRQAPGKEREFVAHINALGTRTYYSDSVKGRFTISRDNAKNTEYLEMNNLKPEDTAVYYCTAQGQWRAAPVAVAAEYEFWGQGTQVTVSSGGGGSGGGGSEVQLVESGGGLVQPGGSLRLSCAATGFTLENKAIGWFRQTPGSEREGVLCISKSGSWTYYTDSMRGRFTISRDNAENTVYLQMDSLKPEDTAVYYCATTTAGGGLCWDGTTFSRLASSWGQGTQVTVSSGGGGSGGGGSEVQLVESGGGLVQPGGSLKLSCAASGFTFSTSWMYWLRQAPGKGLEWVSVINTDGGTYYADSVKDRFTISRDNAKDTLYLQMSSLKSEDTAVYYCAKDWGGPEPTRGQGTQVTVSS
Work on B1 yielded a Kd [1] of 2.2 nM, a Kd [2] of 0.5 nM and a Kd [3] of 2.8 nM. For the same binder, the Kd [4] was 3.1 nM, the Kd [5] was 1.2 nM and the Kd [6] was 1.7 nM. It also gave an average neutralization titer [7] of 4.8 nM, an average neutralization titer [8] of 54.2 nM and an average neutralization titer [9] of 20.9 nM. It also gave an average neutralization titer [10] of 3.4 nM, an average neutralization titer [11] of 10.5 nM and an average neutralization titer [12] of 8.1 nM. For the same binder, the average neutralization titer [13] was 15.1 nM, the average neutralization titer [14] was 22.3 nM and the average neutralization titer [15] was 126 nM. For the same binder, the average neutralization titer [16] was 33 nM, the average neutralization titer [17] was 7.3 nM and the average neutralization titer [18] was 76 nM. The average neutralization titer [19] was 10.6 nM, the average neutralization titer [20] was 7.6 nM and the average neutralization titer [21] was 19.1 nM. For the same binder, the average neutralization titer [22] was 6.5 nM, the average neutralization titer [23] was 6.4 nM and the average neutralization titer [24] was 11.6 nM. For the same binder, the average neutralization titer [25] was 64.6 nM, the average neutralization titer [26] was 16.2 nM and the average neutralization titer [27] was 36.1 nM. For the same binder, the average neutralization titer [28] was greater than 1000 nM, the average neutralization titer [29] was 3.6 nM and the ADCC induction (EC50 grade, FcγRIIIa reporter bioassay) [30] was greater than 0.5 µg/mL. It also gave an ADCC induction (EC50 grade, FcγRIIIa reporter bioassay) [31] greater than 0.5 µg/mL, an average neutralization titer [32] of 30.4 nM and an average neutralization titer [33] of 16.6 nM. For the same binder, the average neutralization titer [34] was 8.8 nM, the average neutralization titer [35] was 3 nM and the average neutralization titer [36] was 4.1 nM. It also gave an average neutralization titer [37] of 26 nM, an average neutralization titer [38] of 34.5 nM and an average neutralization titer [39] of 19.3 nM. For the same binder, the average neutralization titer [40] was 57.4 nM, the average neutralization titer [41] was 9.9 nM and the average neutralization titer [42] was 35 nM. It also gave an average neutralization titer [43] of 19.2 nM.
